Experimental findings from US20190241669A1 (published 2019) are described below.

Changes are numbered by the printed parent chain. In names and notes the source's numbering stands.

Test [1] concerns the target human BCMA (B-cell maturation antigen) (human) (UniProt Q02223). Nature of the test: cell-based or functional assay.
In test [2] the target is Human BCMA (human) (UniProt Q02223). Nature of the test: SPR, IgG on chip, huBCMA analyte. On the technique in general: SPR reads the build-up and loss of mass on a sensor chip optically.
The target of test [3] is BCMA (analyte of Table 4A). The experiment in a line: SPR (Bio-Rad ProteOn XPR36), IgG amine-coupled, BCMA as analyte, kinetic titration; BCMA species and temperature not stated in Table 4A.
Chain of BCMA (analyte of Table 4A) (Q02223 whole entry): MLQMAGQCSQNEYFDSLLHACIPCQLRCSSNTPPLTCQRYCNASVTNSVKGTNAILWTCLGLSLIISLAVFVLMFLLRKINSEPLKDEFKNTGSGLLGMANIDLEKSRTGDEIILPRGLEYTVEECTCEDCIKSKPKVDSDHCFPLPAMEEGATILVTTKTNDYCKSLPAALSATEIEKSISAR
In a further test the target is T1, cynomolgus monkey BCMA (cynomolgus monkey, UniProt A0A2K5UD97 1-53).
T1 construct: Soluble analyte in SPR; construct not described; also called cyBCMA; Cyno BCMA
T1 sequence (A0A2K5UD97 entry or part of it): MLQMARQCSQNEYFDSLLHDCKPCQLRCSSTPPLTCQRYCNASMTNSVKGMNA
The experiment in a line: SPR, IgG on chip, cyBCMA analyte.

Test [4] deals with BCMA on MM1S cells (human) (UniProt Q02223). Nature of the test: cell-based or functional assay.
Chain of BCMA on MM1S cells (human) (Q02223 whole entry): as the sequence (Q02223 whole entry) above
In test [5] the target is Human BCMA (human) (UniProt Q02223). Nature of the test: SPR, IgG immobilised, huBCMA analyte, 25 C.

Chain of human BCMA (B-cell maturation antigen) (human) (Q02223 other isoform, or with tags, fused parts or gaps): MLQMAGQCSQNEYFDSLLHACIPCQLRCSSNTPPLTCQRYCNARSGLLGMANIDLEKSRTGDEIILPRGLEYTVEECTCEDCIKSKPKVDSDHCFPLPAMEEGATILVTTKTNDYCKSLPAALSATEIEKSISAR

B1: P5AC1-V1 BCMA specific CAR (protein)
chain: EVQLLESGGGLVQPGGSLRLSCAASGFTFSSYAMNWVRQAPGKGLEWVSAILSSGGSTYYADSVKGRFTISRDNSKNTLYLQMNSLRAEDTAVYYCARYWPMDIWGQGTLVTVSSGGGGSGGGGSGGGGSEIVLTQSPGTLSLSPGERATLSCRGGQSVSSSYLAWYQQKPGQAPRLLMYDASIRATGIPDRFSGSGSGTDFTLTISRLEPEDFAVYYCQQYQSWPLTFGQGTKVEIKGLAVSTISSFFPPGYQIYIWAPLAGTCGVLLLSLVITLYCKRGRKKLLYIFKQPFMRPVQTTQEEDGCSCRFPEEEEGGCELRVKFSRSADAPAYQQGQNQLYNELNLGRREEYDVLDKRRGRDPEMGGKPRRKNPQEGLYNELQKDKMAEAYSEIGMKGERRRGKGHDGLYQGLSTATKDTYDALHMQALPPR
In test [1], B1 came in with a % CD107a+ (in CD8+) (degranulation, CAR-T cells with MM1S cells, Donor 2) of 68.6% and an MFI CD107a+ (degranulation, CAR-T cells with MM1S cells, Donor 2) of 2190 MFI.

B2: COM22-V1 BCMA specific CAR (protein)
chain: EVQLLESGGGLVQPGGSLRLSCAASGFTFSSYAMNWVRQAPGKGLEWVSAISDSGGSRWYADSVKGRFTISRDNSKNTLYLQMNSLRAEDTAVYYCTRYWPMDIWGQGTLVTVSSGGGGSGGGGSGGGGSEIVLTQSPGTLSLSPGERATLSCRASVRVSSTYLAWYQQKPGQAPRLLMYDASIRATGIPDRFSGSGSGTDFTLTISRLEPEDFAVYYCQQYMKWPLTFGQGTKVEIKGLAVSTISSFFPPGYQIYIWAPLAGTCGVLLLSLVITLYCKRGRKKLLYIFKQPFMRPVQTTQEEDGCSCRFPEEEEGGCELRVKFSRSADAPAYQQGQNQLYNELNLGRREEYDVLDKRRGRDPEMGGKPRRKNPQEGLYNELQKDKMAEAYSEIGMKGERRRGKGHDGLYQGLSTATKDTYDALHMQALPPR
B2: in test [1], the % CD107a+ (in CD8+) (degranulation, CAR-T cells with MM1S cells, Donor 3) was found to be 76.1% and the MFI CD107a+ (degranulation, CAR-T cells with MM1S cells, Donor 3) amounted to 2220 MFI.

B3: P5AC16-V1 BCMA specific CAR (protein)
chain: B1 chain with L52S, S53D, S54F, G155A, G156S, S161D, S162L, S224T
Turning to B3, in test [1], the % CD107a+ (in CD8+) (degranulation, CAR-T cells with MM1S cells, Donor 2) came out at 61.6% and the MFI CD107a+ (degranulation, CAR-T cells with MM1S cells, Donor 2) was found to be 1860 MFI.

B4: P5A-V1 BCMA specific CAR (protein)
chain: B1 chain with L52S, S53D, G155A, G156S, Q223G
In test [1], B4 showed a % CD107a+ (in CD8+) (degranulation, CAR-T cells with MM1S cells, Donor 2) of 77.6% and an MFI CD107a+ (degranulation, CAR-T cells with MM1S cells, Donor 2) of 2670 MFI.

B5: A02_Rd4_6nM_C01 (antibody, V domains shown)
VH: EVQLLESGGGLVQPGGSLRLSCAASGFTFSSYAMNWVRQAPGKGLEWVSAITASGGSTYYADSVKGRFTISRDNSKNTLYLQMNSLRAEDTAVYYCARYWPMSLWGQGTLVTVSS
VL: EIVLTQSPGTLSLSPGERATLSCRASQSVSAYYLAWYQQKPGQAPRLLMYDASIRATGIPDRFSGSGSGTDFTLTISRLEPEDFAVYYCQQYERWPLTFGQGTKVEIK
notes: IgG
Consider B5, for which, in the test with Human BCMA (human) [2], the Kd – broadly, the free concentration of one partner at which half of the binding sites on the other are occupied at equilibrium, for simple one-to-one binding – worked out at 0.03 nM; the koff (commonly the first-order rate constant of dissociation) came to 9.2e-05 s⁻¹; the kon – broadly, a measure of how fast the partners come together – came to 3.11e+06 M⁻¹ s⁻¹. For the same molecule, in test [3], the Kd is 0.024 nM, the off-rate constant (koff) is 2.8e-05 s⁻¹, the kon turned out to be 1.2e+06 M⁻¹ s⁻¹ and the t1/2 was 6.85 h. In the test with cynomolgus monkey BCMA, this molecule gave a Kd of 0.401 nM, a koff of 0.000583 s⁻¹ and a kon of 1.45e+06 M⁻¹ s⁻¹.

B6: A02_Rd4_6nM_C16 (antibody, V domains shown)
VH: B5 VH with T52S, A53D, S54F, S103D, L104I
VL: B5 VL with A31D, Y32L, E93Q, R94T
notes: IgG; also called P5AC16; P5A16
In the test with Human BCMA (human) [2], B6 returned a Kd of 0.09 nM, a koff of 0.000141 s⁻¹ and a kon of 1.56e+06 M⁻¹ s⁻¹. Also, in test [3], the Kd was found to be 0.059 nM, the koff is 6.2e-05 s⁻¹, the kon is 1.1e+06 M⁻¹ s⁻¹ and the t1/2 came to 3.12 h. In the test with cynomolgus monkey BCMA, the affinity, expressed as Kd, was 0.118 nM; the dissociation rate constant (koff) came to 0.000158 s⁻¹; the kon was 1.34e+06 M⁻¹ s⁻¹.

B7: COMBO_Rd4_0.6nM_C29 (antibody, V domains shown)
VH: B5 VH with A33P, N35S, T52G, A53G, T58L, Y59P, S103D, L104I
VL: B5 VL with A31S, Y32S, E93Q, R94S
notes: IgG
In the test with Human BCMA (human) [2], B7 registered a Kd of 0.019 nM, a koff of 0.000277 s⁻¹ and a kon of 1.47e+07 M⁻¹ s⁻¹. For the same molecule, in test [3], the Kd was 0.021 nM, the koff is 0.00014 s⁻¹, the kon is 6.6e+06 M⁻¹ s⁻¹ and the t1/2 was found to be 1.38 h. In the test with cynomolgus monkey BCMA, this molecule gave a dissociation constant Kd of 0.084 nM, a koff of 0.000336 s⁻¹ and a kon of 4e+06 M⁻¹ s⁻¹.

B8: P6AP-V1 (protein)
chain: EVQLLESGGGLVQPGGSLRLSCAASGFTFGSYAMTWVRQAPGKGLEWVSAISGSGGNTFYADSVKGRFTISRDNSKNTLYLQMNSLRAEDTAVYYCARVSPIAAPMDYWGQGTLVTVSSGGGGSGGGGSGGGGSEIVLTQSPGTLSLSPGERATLSCRASQLGSFYLAWYQQKPGQAPRLLIYGASSRATGIPDRFSGSGSGTDFTLTISRLEPEDFAVYYCQHYNYPPSFTFGQGTKVEIKGLAVSTISSFFPPGYQIYIWAPLAGTCGVLLLSLVITLYCKRGRKKLLYIFKQPFMRPVQTTQEEDGCSCRFPEEEEGGCELRVKFSRSADAPAYQQGQNQLYNELNLGRREEYDVLDKRRGRDPEMGGKPRRKNPQEGLYNELQKDKMAEAYSEIGMKGERRRGKGHDGLYQGLSTATKDTYDALHMQALPPR
In the case of B8, in test [4], the % CD107a+ (in CD8+) amounted to 46.4% and the MFI CD107a+ was 1850.

B9: PC1C12-V1 BCMA specific CAR (protein)
chain: EVQLLESGGGLVQPGGSLRLSCAASGFTFSSYPMSWVRQAPGKGLEWVSAIGGSGGWSYYADSVKGRFTISRDNSKNTLYLQMNSLRAEDTAVYYCARYWPMDSWGQGTLVTVSSGGGGSGGGGSGGGGSEIVLTQSPGTLSLSPGERATLSCWLSQSVSSTYLAWYQQKPGQAPRLLIYDASSRAPGIPDRFSGSGSGTDFTLTISRLEPEDFAVYYCQQYSEWPLTFGQGTKVEIKGLAVSTISSFFPPGYQIYIWAPLAGTCGVLLLSLVITLYCKRGRKKLLYIFKQPFMRPVQTTQEEDGCSCRFPEEEEGGCELRVKFSRSADAPAYQQGQNQLYNELNLGRREEYDVLDKRRGRDPEMGGKPRRKNPQEGLYNELQKDKMAEAYSEIGMKGERRRGKGHDGLYQGLSTATKDTYDALHMQALPPR
With B9, in test [1], the % CD107a+ (in CD8+) (degranulation, CAR-T cells with MM1S cells, Donor 3) turned out to be 68.2% and the MFI CD107a+ (degranulation, CAR-T cells with MM1S cells, Donor 3) came to 1960 MFI.

B10: PC1-V1 BCMA specific CAR (protein)
chain: B9 chain with W57S, S58T, W154R, L155A, E224T, W225S
Turning to B10, in test [1], the % CD107a+ (in CD8+) (degranulation, CAR-T cells with MM1S cells, Donor 3) was 75.6% and the MFI CD107a+ (degranulation, CAR-T cells with MM1S cells, Donor 3) stood at 2180 MFI.

B11: L1.GDF/L3.NY/H3.AP (antibody, V domains shown)
VH: EVQLLESGGGLVQPGGSLRLSCAASGFTFGSYAMTWVRQAPGKGLEWVSAISGSGGNTFYADSVKGRFTISRDNSKNTLYLQMNSLRAEDTAVYYCARVSPIAAPMDYWGQGTLVTVSS
VL: EIVLTQSPGTLSLSPGERATLSCRASQSVGDFYLAWYQQKPGQAPRLLIYGASSRATGIPDRFSGSGSGTDFTLTISRLEPEDFAVYYCQHYNYPPSFTFGQGTKVEIK
As for B11, in the test with Human BCMA (human) [5], the Kd came out at 1 nM, the T½ was found to be 8.21 min, the koff was found to be 0.00141 s⁻¹ and the kon worked out at 1.41e+06 M⁻¹ s⁻¹.
